The results in this text go back to the RNAGym collection of RNA variant scans (doi:10.7554/elife.90254).

Sequences and labels used below:
B1: LINE1-mini (parent)
chain: GGCAGAGCUCAACACAGCGUGGCAAAGUGGCUGUGGCUAGACUGCC

This series covers variants of B1. Nature of the series: self-cleavage, relative activity (ratio to wild type); higher = more cleavage; in vitro, sequencing; the parent is a self-cleaving ribozyme.
In the case of AGCAGAGCUCAACACAGCGUGGCAAAGUGGCUGUGGCUGGACUGCC, the self-cleavage is 0.12.

Consider AGCAGAGCUCAACACAGCGUGGCAAAGUGGCUGUGGCUCGACUGCC, for which the self-cleavage was 0.14.

On to AGCAGAGCUCAACACAGCGUGGCAAAGUGGCUGUGGCUAGACUGCC, for which the self-cleavage came out at 1.11.

As to AGCAGAGCUCAACAAAGCGUGGCAAAGUGGCUGUGGCUAGACUGCC, the self-cleavage is 0.06.

As for AGCAGAGCUCAACAGAGCGUGGCAAAGUGGCUGUGGCUAGACUGCC, the self-cleavage worked out at 0.08.

As for AGCAGAGCUCAACAUAGCGUGGCAAAGUGGCUGUGGCUAGACUGCC, the self-cleavage turned out to be 1.02.

Regarding AGCAGAGCUCACCACAGCGUGGCAAAGUGGCUGUGGCUAGACUGCC, the self-cleavage is 0.04.

Regarding AGCAGAGCUCAUCACAGCGUGGCAAAGUGGCUGUGGCUAGACUGCC, the self-cleavage came to 0.19.

With AGCAGAGCUCAGCACAGCGUGGCAAAGUGGCUGUGGCUAGACUGCC, the self-cleavage worked out at 0.04.

As to AGCAGAGCUAAACACAGCGUGGCAAAGUGGCUGUGGCUAGACUGCC, the self-cleavage worked out at 0.12.

In the case of AGCAGAGCUUAACACAGCGUGGCAAAGUGGCUGUGGCUAGACUGCC, the self-cleavage came out at 0.35.

As for AGCAGAGCUGAACACAGCGUGGCAAAGUGGCUGUGGCUAGACUGCC, the self-cleavage was determined as 0.18.

For the variant AGCAGAGCUCAACACAGCGUGGCAAAGUGGCUGUGGCUAGACUGGC, the self-cleavage was 0.34.

In the case of AGCAGAGCUCAACACAGCGUGGCAAAGUGGCUGUGGCUAGACUGAC, the self-cleavage worked out at 0.82.

Take AGCAGAGCUCAACACAGCGUGGCAAAGUGGCUGUGGCUAGACUGUC: the self-cleavage was 1.19.

For the variant AGCAGAGCUCAACACAGCGUGGCAAAGUGGCUGUGGGUAGACUGCC, the self-cleavage came out at 0.04.

As for AGCAGAGCUCAACACAGCGUGGCAAAGUGGCUGUGGUUAGACUGCC, the self-cleavage was determined as 0.08.

With AGCAGAGCUCAACACAGCGUGGCAAAGUGGCUGUGGAUAGACUGCC, the self-cleavage turned out to be 0.07.

As for AGCAGAACUCAACACAGCGUGGCAAAGUGGCUGUGGCUAGACUGCC, the self-cleavage came out at 0.51.

On to AGCAGAUCUCAACACAGCGUGGCAAAGUGGCUGUGGCUAGACUGCC, for which the self-cleavage worked out at 0.3.

On to AGCAGACCUCAACACAGCGUGGCAAAGUGGCUGUGGCUAGACUGCC, for which the self-cleavage is 0.6.

Regarding AGCAGAGCUCAACACAGCGUGGCAAAGUAGCUGUGGCUAGACUGCC, the self-cleavage came out at 0.63.

Consider AGCAGAGCUCAACACAGCGUGGCAAAGUUGCUGUGGCUAGACUGCC, for which the self-cleavage is 1.1.

Take AGCAGAGCUCAACACAGCGUGGCAAAGUCGCUGUGGCUAGACUGCC: the self-cleavage worked out at 0.28.

In the case of AGCAGAGAUCAACACAGCGUGGCAAAGUGGCUGUGGCUAGACUGCC, the self-cleavage stood at 0.88.

Consider AGCAGAGGUCAACACAGCGUGGCAAAGUGGCUGUGGCUAGACUGCC, for which the self-cleavage was found to be 0.41.

On to AGCAGAGUUCAACACAGCGUGGCAAAGUGGCUGUGGCUAGACUGCC, for which the self-cleavage came to 0.78.

Regarding AGCAGAGCUCAACACAGCGUGGGAAAGUGGCUGUGGCUAGACUGCC, the self-cleavage turned out to be 0.53.

Take AGCAGAGCUCAACACAGCGUGGUAAAGUGGCUGUGGCUAGACUGCC: the self-cleavage stood at 1.29.

As to AGCAGAGCUCAACACAGCGUGGAAAAGUGGCUGUGGCUAGACUGCC, the self-cleavage was 0.95.

Consider AGCAGAGCUCAAGACAGCGUGGCAAAGUGGCUGUGGCUAGACUGCC, for which the self-cleavage is 0.1.

As for AGCAGAGCUCAAAACAGCGUGGCAAAGUGGCUGUGGCUAGACUGCC, the self-cleavage turned out to be 0.13.

Turning to AGCAGAGCUCAAUACAGCGUGGCAAAGUGGCUGUGGCUAGACUGCC, the self-cleavage came out at 0.2.

On to AGCAGAGCUCAACACAGCGUGGCAAAGUGGCUGUGGCUAGACUACC, for which the self-cleavage was determined as 0.28.

For the variant AGCAGAGCUCAACACAGCGUGGCAAAGUGGCUGUGGCUAGACUCCC, the self-cleavage was 0.47.

For the variant AGCAGAGCUCAACACAGCGUGGCAAAGUGCCUGUGGCUAGACUGCC, the self-cleavage is 1.51.

On to AGCAGAGCUCAACACAGCGUGGCAAAGUGUCUGUGGCUAGACUGCC, for which the self-cleavage was 1.59.

With AGCAGAGCUCAACACAGCGUGGCAAAGUGACUGUGGCUAGACUGCC, the self-cleavage was determined as 0.85.

In the case of AGCAGAGCUCAACACAGCCUGGCAAAGUGGCUGUGGCUAGACUGCC, the self-cleavage was 1.28.

Turning to AGCAGAGCUCAACACAGCAUGGCAAAGUGGCUGUGGCUAGACUGCC, the self-cleavage is 1.77.

AGCAGAGCUCAACACAGCUUGGCAAAGUGGCUGUGGCUAGACUGCC: the self-cleavage is 0.94.

Regarding AGCAGAGCUCAACACAGGGUGGCAAAGUGGCUGUGGCUAGACUGCC, the self-cleavage stood at 0.38.

For AGCAGAGCUCAACACAGUGUGGCAAAGUGGCUGUGGCUAGACUGCC, the self-cleavage was 0.94.

As to AGCAGAGCUCAACACAGAGUGGCAAAGUGGCUGUGGCUAGACUGCC, the self-cleavage is 1.81.

Consider AGCAGAGCUCAACACAGCGUGGCAAAGUGGCUCUGGCUAGACUGCC, for which the self-cleavage is 0.05.

As for AGCAGAGCUCAACACAGCGUGGCAAAGUGGCUUUGGCUAGACUGCC, the self-cleavage amounted to 0.09.

For the variant AGCAGAGCUCAACACAGCGUGGCAAAGUGGCUAUGGCUAGACUGCC, the self-cleavage was 0.09.

Consider AGCAGAGCUCAACACAGCGUGGCAAAGUGGUUGUGGCUAGACUGCC, for which the self-cleavage turned out to be 0.32.

For the variant AGCAGAGCUCAACACAGCGUGGCAAAGUGGGUGUGGCUAGACUGCC, the self-cleavage came to 0.11.

For the variant AGCAGAGCUCAACACAGCGUGGCAAAGUGGAUGUGGCUAGACUGCC, the self-cleavage was 0.12.

With AGCAGAGCUCAACACCGCGUGGCAAAGUGGCUGUGGCUAGACUGCC, the self-cleavage came to 0.11.

As to AGCAGAGCUCAACACUGCGUGGCAAAGUGGCUGUGGCUAGACUGCC, the self-cleavage came out at 0.1.

On to AGCAGAGCUCAACACGGCGUGGCAAAGUGGCUGUGGCUAGACUGCC, for which the self-cleavage came out at 0.25.

With AGCAGAGCUCAACACAGCGUGGCAAAGUGGCUGUGGCUAGAGUGCC, the self-cleavage stood at 0.06.

Consider AGCAGAGCUCAACACAGCGUGGCAAAGUGGCUGUGGCUAGAAUGCC, for which the self-cleavage came out at 0.06.

With AGCAGAGCUCAACACAGCGUGGCAAAGUGGCUGUGGCUAGAUUGCC, the self-cleavage turned out to be 0.16.
